The record followed here is article PMC4038756 (Theranostics, 2014).

By IC50 is commonly meant the concentration needed to halve the response being measured. High values mean weaker potency in that assay, low ones greater potency in that assay. As usually defined, the tissue uptake is the percentage of the injected dose found per gram of tissue.

Data set [1] deals with αvβ6 integrin-positive H2009 human NSCLC cells (Homo sapiens, UniProt P06756+P18564). Description: Peptide competition assay: inhibition of H2009.1 peptide phage binding to cells.
The next data set has as its system H460 (αvβ6^-) xenografts. Description: Small animal PET/CT imaging, H460 tumor bearing mice. The format is in vivo, NOD/SCID mice. The note with it: H460 tumor bearing mice, quantitative PET, mean ± s.d., n = 3.
Assay in data set [2]: as above
The note with it: NOD/SCID, mouse, iv, total radioactivity. The format is in vivo, NOD/SCID mice.

The subject of data set [3] is H2009 (αvβ6^+) xenografts. Description: Small animal PET/CT imaging, H2009 tumor bearing mice. The data set is classed as in vivo, NOD/SCID mice. Particulars: for Tumor uptake: quantitative PET, mean ± s.d.; for Tumor uptake / Tumor/Lung: n = 3; for Tumor/Lung: ratio of PET uptakes.
Assay in data set [4]: as above
Particulars: NOD/SCID, mouse, iv, total radioactivity. The format is in vivo, NOD/SCID mice.

The target of another data set is purified αvβ6 (Homo sapiens, UniProt P06756+P18564). Description: Binding assay on purified integrins. Particulars: purified αvβ6, up to 1 µM.
Setting [5] is: H2009 tumor bearing mice, 1 h p.i.
Setting [6] is: H2009 tumor bearing mice, 4 h p.i.
Setting [7] is: H2009 tumor bearing mice, 24 h p.i.

Chain of αvβ6 integrin-positive H2009 human NSCLC cells (P18564 22-788): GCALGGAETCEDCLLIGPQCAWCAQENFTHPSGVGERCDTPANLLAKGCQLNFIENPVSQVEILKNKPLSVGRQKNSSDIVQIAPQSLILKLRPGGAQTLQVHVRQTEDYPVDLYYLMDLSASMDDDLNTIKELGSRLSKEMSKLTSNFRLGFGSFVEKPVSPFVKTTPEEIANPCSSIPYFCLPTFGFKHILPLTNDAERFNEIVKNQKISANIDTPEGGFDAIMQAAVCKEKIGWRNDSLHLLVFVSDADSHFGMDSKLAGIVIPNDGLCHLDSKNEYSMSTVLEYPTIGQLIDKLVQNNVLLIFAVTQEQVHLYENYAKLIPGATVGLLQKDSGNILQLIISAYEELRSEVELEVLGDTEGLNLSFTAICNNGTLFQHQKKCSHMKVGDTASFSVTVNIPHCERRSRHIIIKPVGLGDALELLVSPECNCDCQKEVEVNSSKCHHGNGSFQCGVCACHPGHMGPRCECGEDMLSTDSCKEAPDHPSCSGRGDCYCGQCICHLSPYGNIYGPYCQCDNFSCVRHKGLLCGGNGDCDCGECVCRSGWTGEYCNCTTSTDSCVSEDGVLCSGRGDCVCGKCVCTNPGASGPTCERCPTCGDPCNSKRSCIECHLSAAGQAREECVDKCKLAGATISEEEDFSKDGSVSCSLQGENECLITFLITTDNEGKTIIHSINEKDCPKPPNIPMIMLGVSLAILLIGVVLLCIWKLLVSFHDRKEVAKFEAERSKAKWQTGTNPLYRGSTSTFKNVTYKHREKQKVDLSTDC
Chain of αvβ6 integrin-positive H2009 human NSCLC cells (P06756 891-1048): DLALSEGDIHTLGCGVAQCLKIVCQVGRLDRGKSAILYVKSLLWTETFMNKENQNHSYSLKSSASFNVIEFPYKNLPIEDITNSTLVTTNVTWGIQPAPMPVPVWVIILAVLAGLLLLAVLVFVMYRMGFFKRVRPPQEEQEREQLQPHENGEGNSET
Chain of αvβ6 integrin-positive H2009 human NSCLC cells (P06756 31-889): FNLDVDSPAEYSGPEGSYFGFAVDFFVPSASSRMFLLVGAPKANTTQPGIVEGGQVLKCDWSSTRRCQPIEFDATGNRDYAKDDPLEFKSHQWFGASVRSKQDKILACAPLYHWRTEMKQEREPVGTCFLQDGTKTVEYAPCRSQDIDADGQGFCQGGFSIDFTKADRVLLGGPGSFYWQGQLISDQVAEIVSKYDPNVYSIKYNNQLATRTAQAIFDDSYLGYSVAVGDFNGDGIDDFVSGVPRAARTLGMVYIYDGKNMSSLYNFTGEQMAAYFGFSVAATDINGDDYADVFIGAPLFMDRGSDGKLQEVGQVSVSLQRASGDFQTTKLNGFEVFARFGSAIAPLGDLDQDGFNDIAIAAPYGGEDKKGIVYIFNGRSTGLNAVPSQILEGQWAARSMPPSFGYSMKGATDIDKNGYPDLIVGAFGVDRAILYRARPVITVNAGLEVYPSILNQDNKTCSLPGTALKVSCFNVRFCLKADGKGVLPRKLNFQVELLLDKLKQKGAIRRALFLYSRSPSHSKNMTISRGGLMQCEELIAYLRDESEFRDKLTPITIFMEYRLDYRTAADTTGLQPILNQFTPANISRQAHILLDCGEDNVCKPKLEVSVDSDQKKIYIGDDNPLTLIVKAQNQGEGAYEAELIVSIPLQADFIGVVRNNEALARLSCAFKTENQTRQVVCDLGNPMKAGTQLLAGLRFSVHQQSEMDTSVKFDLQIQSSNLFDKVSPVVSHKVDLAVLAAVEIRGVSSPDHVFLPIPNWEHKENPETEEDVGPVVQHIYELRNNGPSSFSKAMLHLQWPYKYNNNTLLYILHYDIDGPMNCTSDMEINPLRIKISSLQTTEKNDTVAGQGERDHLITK
Chain of purified αvβ6 (P06756 31-992 limits assumed): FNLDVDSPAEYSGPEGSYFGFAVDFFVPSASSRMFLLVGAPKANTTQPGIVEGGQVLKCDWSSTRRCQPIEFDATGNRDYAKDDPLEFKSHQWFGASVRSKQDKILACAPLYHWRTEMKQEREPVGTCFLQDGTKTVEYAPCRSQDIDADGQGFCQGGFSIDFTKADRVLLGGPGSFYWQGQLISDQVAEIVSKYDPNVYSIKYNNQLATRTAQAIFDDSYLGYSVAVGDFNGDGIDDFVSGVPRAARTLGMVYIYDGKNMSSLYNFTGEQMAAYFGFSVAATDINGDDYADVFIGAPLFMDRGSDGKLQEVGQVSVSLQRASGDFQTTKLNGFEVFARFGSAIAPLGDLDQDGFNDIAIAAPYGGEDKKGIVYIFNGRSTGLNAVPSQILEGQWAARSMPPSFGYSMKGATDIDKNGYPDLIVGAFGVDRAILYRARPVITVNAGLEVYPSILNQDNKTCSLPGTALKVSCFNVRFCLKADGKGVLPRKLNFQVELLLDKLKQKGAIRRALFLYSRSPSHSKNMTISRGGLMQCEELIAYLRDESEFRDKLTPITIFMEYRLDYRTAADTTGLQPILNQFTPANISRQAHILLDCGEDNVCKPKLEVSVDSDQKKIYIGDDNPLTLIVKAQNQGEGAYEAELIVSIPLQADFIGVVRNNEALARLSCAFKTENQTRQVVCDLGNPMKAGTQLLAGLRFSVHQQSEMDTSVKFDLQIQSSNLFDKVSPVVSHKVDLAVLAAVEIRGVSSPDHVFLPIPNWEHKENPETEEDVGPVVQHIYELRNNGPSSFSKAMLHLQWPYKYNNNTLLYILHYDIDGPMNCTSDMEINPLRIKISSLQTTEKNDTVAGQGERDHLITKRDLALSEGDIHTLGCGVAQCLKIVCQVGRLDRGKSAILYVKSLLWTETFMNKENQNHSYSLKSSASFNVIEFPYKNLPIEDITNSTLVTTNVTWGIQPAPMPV
Chain of purified αvβ6 (P18564 22-707 limits assumed): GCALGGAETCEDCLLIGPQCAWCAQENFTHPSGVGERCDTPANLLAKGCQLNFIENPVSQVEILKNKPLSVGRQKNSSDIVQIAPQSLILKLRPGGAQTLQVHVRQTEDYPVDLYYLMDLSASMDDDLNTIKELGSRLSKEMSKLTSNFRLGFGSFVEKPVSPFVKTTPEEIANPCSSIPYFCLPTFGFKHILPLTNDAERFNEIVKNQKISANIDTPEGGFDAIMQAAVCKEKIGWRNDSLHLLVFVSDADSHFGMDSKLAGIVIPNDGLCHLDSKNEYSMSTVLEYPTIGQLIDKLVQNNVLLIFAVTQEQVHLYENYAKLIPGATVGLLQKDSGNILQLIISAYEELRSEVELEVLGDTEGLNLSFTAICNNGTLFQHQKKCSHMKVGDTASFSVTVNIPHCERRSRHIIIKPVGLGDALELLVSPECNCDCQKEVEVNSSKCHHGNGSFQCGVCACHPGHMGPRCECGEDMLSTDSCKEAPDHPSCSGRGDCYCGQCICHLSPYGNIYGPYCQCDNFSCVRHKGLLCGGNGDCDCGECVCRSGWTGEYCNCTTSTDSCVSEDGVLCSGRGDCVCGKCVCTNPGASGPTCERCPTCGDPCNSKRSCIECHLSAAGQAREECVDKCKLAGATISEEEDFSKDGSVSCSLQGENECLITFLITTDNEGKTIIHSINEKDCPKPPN

For the compound `CC(C)C[C@H](NC(=O)[C@H](CCC(N)=O)NC(=O)[C@H](CCCNC(=N)N)NC(=O)[C@H](CC(C)C)NC(=O)[C@@H](NC(=O)[C@H](C)NC(=O)[C@H](CC(C)C)NC(=O)[C@H](CC(=O)O)NC(=O)CNC(=O)[C@@H](N)CCCNC(=N)N)[C@@H](C)O)C(=O)NCCOCCOCCOCCOCCOCCOCCOCCOCCOCCOCCOCCOCCC(=O)N[C@@H](CSC1CC(=O)N(CCNC(=O)CCC(C(=O)O)N2CCCN3CCN(CCCN(CC(=O)O)CC3)CC2)C1=O)C(N)=O` (stereo partly shown) [H2-M10], the concentration for half-maximal inhibition (IC50) in data set [1] was 4.5 nM.
Turning to `CC(C)C[C@H](NC(=O)[C@H](CCC(N)=O)NC(=O)[C@H](CCCNC(=N)N)NC(=O)[C@H](CC(C)C)NC(=O)[C@@H](NC(=O)[C@H](C)NC(=O)[C@H](CC(C)C)NC(=O)[C@H](CC(=O)O)NC(=O)CNC(=O)[C@@H](N)CCCNC(=N)N)[C@@H](C)O)C(=O)NCCOCCOCCOCCOCCOCCOCCOCCOCCOCCOCCOCCOCCC(=O)N[C@@H](CSC1CC(=O)N(CCC(=O)NCCCC[C@H](NC(=O)CCN2C(=O)CC(SC[C@H](NC(=O)CCOCCOCCOCCOCCOCCOCCOCCOCCOCCOCCOCCOCCNC(=O)[C@H](CC(C)C)NC(=O)[C@H](CCC(N)=O)NC(=O)[C@H](CCCNC(=N)N)NC(=O)[C@H](CC(C)C)NC(=O)[C@@H](NC(=O)[C@H](C)NC(=O)[C@H](CC(C)C)NC(=O)[C@H](CC(=O)O)NC(=O)CNC(=O)[C@@H](N)CCCNC(=N)N)[C@@H](C)O)C(N)=O)C2=O)C(=O)NCCC(=O)N[C@@H](CSC2CC(=O)N(CCNC(=O)CCC(C(=O)O)N3CCCN4CCN(CCCN(CC(=O)O)CC4)CC3)C2=O)C(N)=O)C1=O)C(N)=O` (stereo partly shown) [^64Cu-D10, metal not drawn], the Tumor uptake in the data set with H460 (αvβ6^-) xenografts (1 h p.i.) amounted to 0.86 ± 0.21 %ID/g; in the data set on H460 (αvβ6^-) xenografts (4 h p.i.) it was 0.52 ± 0.05 %ID/g; with H460 (αvβ6^-) xenografts (24 h p.i.), 0.39 ± 0.04 %ID/g; in data set [3] (setting [5]) it was 1.53 ± 0.15 %ID/g; in data set [3] (setting [6]), 1.2 ± 0.26 %ID/g; in data set [3] (setting [7]) it was 0.89 ± 0.26 %ID/g. Also, the tissue uptake at 1 h in data set [2] (heart) worked out at 1.41 ± 0.43 %ID/g; in data set [2] (kidney), 43.3 ± 5.4 %ID/g; in data set [2] (liver) it was 2.63 ± 0.92 %ID/g; in data set [2] (lung), 1.33 ± 0.3 %ID/g; in data set [2] (muscle) it was 0.75 ± 0.24 %ID/g; in data set [4] (heart), 1.26 ± 0.37 %ID/g. Further, the tissue uptake at 1 h in data set [4] (kidney) is 43.5 ± 1.8 %ID/g; in data set [4] (liver), 2 ± 0.1 %ID/g; in data set [4] (lung) it was 1.86 ± 0.2 %ID/g; in data set [4] (muscle), 0.8 ± 0.11 %ID/g. Also, the tissue uptake at 4 h in data set [2] (heart) came out at 0.77 ± 0.09 %ID/g; in data set [2] (kidney) it was 50.1 ± 3.87 %ID/g; in data set [2] (liver) it was 2.3 ± 0.26 %ID/g; in data set [2] (lung) it was 0.77 ± 0.07 %ID/g; in data set [2] (muscle), 0.31 ± 0.06 %ID/g; in data set [4] (heart) it was 0.79 ± 0.27 %ID/g. In addition, the tissue uptake at 4 h in data set [4] (kidney) was found to be 39.3 ± 5.66 %ID/g; in data set [4] (liver) it was 1.56 ± 0.11 %ID/g; in data set [4] (lung), 0.99 ± 0.18 %ID/g; in data set [4] (muscle) it was 0.4 ± 0.03 %ID/g. Moreover, the tissue uptake at 24 h came to 0.47 ± 0.09 %ID/g in data set [2] (heart); 19.8 ± 2.38 %ID/g in data set [2] (kidney); 1.83 ± 0.15 %ID/g in data set [2] (liver); 0.45 ± 0.17 %ID/g in data set [2] (lung); 0.33 ± 0.08 %ID/g in data set [2] (muscle); 0.42 ± 0.1 %ID/g in data set [4] (heart). Further, the tissue uptake at 24 h in data set [4] (kidney) was determined as 21.4 ± 0.57 %ID/g; in data set [4] (liver), 1.01 ± 0.14 %ID/g; in data set [4] (lung), 0.62 ± 0.23 %ID/g; in data set [4] (muscle) it was 0.27 ± 0.13 %ID/g. For the same compound, the “increase of kidney uptake as compared to 64Cu-M10” value in data set [3] (H2009 tumor bearing mice, 1 h, 4 h, 24 h p.i.) was roughly 6 fold. The Tumor/Lung in data set [3] (setting [5]) is given as 0.8 ± 0.25; in data set [3] (setting [6]) it was 1.2 ± 0.31; in data set [3] (setting [7]) it was 1.4 ± 0.34. For the same compound, in data set [3] (H2009 tumor, all three time points (1 h, 4 h, 24 h p.i.)), the “tumor uptake increase as compared to 64Cu-M10” value is listed as roughly 3 fold.
In the case of `CC(C)C[C@H](NC(=O)[C@H](CCC(N)=O)NC(=O)[C@H](CCCNC(=N)N)NC(=O)[C@H](CC(C)C)NC(=O)[C@@H](NC(=O)[C@H](C)NC(=O)[C@H](CC(C)C)NC(=O)[C@H](CC(=O)O)NC(=O)CNC(=O)[C@@H](N)CCCNC(=N)N)[C@@H](C)O)C(=O)NCCOCCOCCOCCOCCOCCOCCOCCOCCOCCOCCOCCOCCC(=O)N[C@@H](CSC1CC(=O)N(CCNC(=O)CCC(C(=O)O)N2CCCN3CCN(CCCN(CC(=O)O)CC3)CC2)C1=O)C(N)=O` (stereo partly shown) [^64Cu-M10, metal not drawn], the Tumor uptake with H460 (αvβ6^-) xenografts (1 h p.i.) worked out at 0.34 ± 0.05 %ID/g; in the data set on H460 (αvβ6^-) xenografts (4 h p.i.), 0.24 ± 0.01 %ID/g; in the data set on H460 (αvβ6^-) xenografts (24 h p.i.), 0.19 ± 0.01 %ID/g; in data set [3] (setting [5]) it was 0.55 ± 0.17 %ID/g; in data set [3] (setting [6]), 0.33 ± 0.11 %ID/g; in data set [3] (setting [7]) it was 0.28 ± 0.11 %ID/g. Also, the tissue uptake at 1 h in data set [2] (heart) came to 1.02 ± 0.17 %ID/g; in data set [2] (kidney) it was 14 ± 2.4 %ID/g; in data set [2] (liver), 0.93 ± 0.12 %ID/g; in data set [2] (lung), 0.55 ± 0.09 %ID/g; in data set [2] (muscle) it was 0.15 ± 0.07 %ID/g; in data set [4] (heart), 1.02 ± 0.07 %ID/g. The tissue uptake at 1 h in data set [4] (kidney) was found to be 6.83 ± 0.35 %ID/g; in data set [4] (liver), 2.03 ± 0.23 %ID/g; in data set [4] (lung), 0.66 ± 0.08 %ID/g; in data set [4] (muscle), 0.3 ± 0.02 %ID/g. Besides, the tissue uptake at 4 h was found to be 0.65 ± 0.12 %ID/g in data set [2] (heart); 12.5 ± 2.33 %ID/g in data set [2] (kidney); 0.77 ± 0.06 %ID/g in data set [2] (liver); 0.34 ± 0.07 %ID/g in data set [2] (lung); 0.11 ± 0.04 %ID/g in data set [2] (muscle); 0.42 ± 0.06 %ID/g in data set [4] (heart). The tissue uptake at 4 h worked out at 6.23 ± 0.32 %ID/g in data set [4] (kidney), 1.53 ± 0.21 %ID/g in data set [4] (liver), 0.33 ± 0.11 %ID/g in data set [4] (lung) and 0.12 ± 0.02 %ID/g in data set [4] (muscle). For the same compound, the tissue uptake at 24 h in data set [2] (heart) is 0.33 ± 0.03 %ID/g; in data set [2] (kidney) it was 5.97 ± 1.01 %ID/g; in data set [2] (liver), 0.43 ± 0.05 %ID/g; in data set [2] (lung), 0.18 ± 0.02 %ID/g; in data set [2] (muscle), 0.1 ± 0.03 %ID/g; in data set [4] (heart), 0.16 ± 0.05 %ID/g. Moreover, the tissue uptake at 24 h in data set [4] (kidney) turned out to be 3.5 ± 0.36 %ID/g; in data set [4] (liver) it was 1.3 ± 0.1 %ID/g; in data set [4] (lung), 0.15 ± 0.04 %ID/g; in data set [4] (muscle), 0.14 ± 0.02 %ID/g. Also, the Tumor/Lung in data set [3] (setting [5]) stood at 0.83 ± 0.18; in data set [3] (setting [6]), 1.0 ± 0.15; in data set [3] (setting [7]) it was 1.86 ± 0.11.
For `N=C(N)NCCC[C@@H]1NC(=O)[C@H](CCCCN)NC(=O)[C@@H](Cc2ccc(O)cc2)NC(=O)[C@H](CC(=O)O)NC(=O)CNC1=O` [cRGDyK], the “binding to αvβ6” value on purified αvβ6 is reported as “no detectable binding”.
